T1: Aβ 25-35 (UniProt P05067 696-706)
T1 construct: domain: Aβ 25-35; Positions count on Aβ; also called product code 4309-v
T1 peptide (looked up): GSNKGAIIGLM

T2: Aβ 34-42 (UniProt P05067 705-713)
T2 construct: domain: Aβ 34-42; Positions count on Aβ
T2 peptide (looked up): LMVGGVVIA

B1: monoclonal antibody 3.4A10 (antibody of Example 1) (antibody, V domains shown)
VH: EVQLLESGGGLVQPGGSRKLSCAASGFTFSSFGVHWFRQAPEKGLEWVAYISSGSSTIYYADTVKGRFTISRDNPKNTLFLQMASLRSEDTAMYYCAPYGSSPFPYWGQGTLVTVST
VL: ELQLTQSPASLAVSLGQRATISCRASESVDSYGYNFMHWYQQKPGQPPKLLIYLASNLESGVPARFSGSGSRTDFTLTIDPVEADDAATYYCQQNNEDPLTFGAGTKLELKR
notes: Mouse IgG2b from a hybridoma, purified from ascites; also called TAPIR antibody

What was measured:
[1] = target: amyloid β 1-42 protein (Aβ 1-42) (UniProt P05067); experiment: SPR competition, Biacore J; Aβ 1-42 on a CM5 chip saturated with 3.4A10 (competitor), then 3.4A10 and 4G8 mixed 20:1; set-up: unit not given here
[2] = target: T1, Aβ 25-35; experiment: dot blot of peptides on nitrocellulose
[3] = target: T2, Aβ 34-42; experiment: dot blot of peptides on nitrocellulose

Sequence of amyloid β 1-42 protein (Aβ 1-42) (P05067 672-713 limits assumed): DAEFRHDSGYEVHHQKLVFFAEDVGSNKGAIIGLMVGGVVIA

Molecule | enhanced reaction (response level) [1] | binding result [2] | binding result [3]
mouse anti-human Aβ monoclonal antibody 4G8 | > 2000 |  | 
B1 |  | no binding (tested: 1 μg/ml antibody) | no binding (tested: 1 μg/ml antibody)

Source: patent WO2009104736A1 (dated 2009)
